According to US11311577B2, “Coordinating gene expression using RNA destabilizing elements” (Chimera Bioengineering, Inc., priority 2018, dated 2022):

Test system: T-cells
Assay: Removal of microRNA binding sites from an RDE: expression from constructs, GFP in T-cells
Type: cell-based
Conditions: MIR186 micro-RNA sites removed from the 3′-UTR of IL-2
Description: The AU-rich element from the 3′-UTR of IL-2 has mir-181 and mir 186 microRNA binding sites. Different combinations of the microRNA sites were removed from the 3′-UTR of IL-2. When the MIR186 micro-RNA sites were removed from the 3′-UTR of IL-2 the dynamic range of expression from constructs with this UTR increased 50 fold. The modified IL-2, 3′-UTR replaces CTT in the sequence with GAA and is shown below (the new GAA is underlined in the sequence):
Different combinations of the micro-RNA sites were removed from the 3′UTR of IFNg and tested for increased expression. When the mir125 micro-RNA sites were removed from the 3′-UTR of IFN-γ the expression rate from constructs with this UTR is increased.
Expression of GFP in T-cells, transfected with the RDE-GFP plus the microRNA sites, is compared to expression of GFP in T-cells with the RDE-GFP in which the microRNA sites have been removed, following activation with CD3/CD28 beads for 24 hours. The removal of the microRNA sites increased expression of the GFP by a factor of between 2-5 after 24 hours, relative to the cells with microRNA sites.

B1: modified IL-2, 3′-UTR: IL-2 3′-UTR with MIR186 micro-RNA sites removed, CTT replaced with GAA (SEQ ID NO: 22) (nucleic acid, listed as Homo sapiens)
DNA: TAATTAAGTGCTTCCCACTTAAAACATATCAGGCCTTCTATTTATTTAAATATTTAAATTTTATATTTATTGTTGAATGTATGGTTTGCTACCTATTGTAACTATTATTCTTAATCTTAAAACTATAAATATGGATCTTTTATGATTGAATTTGTAAGCCCTAGGGGCTCTAAAATGGTTTCACTTATTTATCCCAAAATATTTATTATTATGTTGAATGTTAAATATAGTATCTATGTAGATTGGTTAGTAAAACTATTTAATAAATTTGATAAATATAAA
- increase of dynamic range of expression: 50 fold
